Data on 5 molecules can be found in US20150125458A1 (Janssen / Centocor, published 2015).

T1: human CCL17 (human, UniProt Q92583 24-94)
T1 construct: Biotinylated in the ELISA screens; also called huCCL17; Bt-huCCL17
T1 sequence: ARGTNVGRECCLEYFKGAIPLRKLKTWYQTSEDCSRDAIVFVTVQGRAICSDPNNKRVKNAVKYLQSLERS

T2: cyno CCL17 (Macaca fascicularis (cyno), UniProt Q8HYP9 24-94 (rhesus entry))
T2 construct: Biotinylated in the ELISA screens; also called cCCL17; Macaca fascicularis CCL17
T2 sequence: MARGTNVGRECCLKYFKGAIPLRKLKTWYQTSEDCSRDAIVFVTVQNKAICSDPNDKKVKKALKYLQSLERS

B1: C17F319 Fab variant W100a to F (Fab, V domains shown)
VH: EVQLVQSGAEVKKPGESLKISCKGSGYSFTSYWIGWVRQMPGKGLEWMGIIDPSDSDTRYSPSFQGQVTISADKSISTAYLQWSSLKASDTAMYYCARVGPADVFDSFDYWGQGTLVTVSS
VL: DIVMTQSPDSLAVSLGERATINCKSSQSVLLSPWNSNQLAWYQQKPGQPPKLLIYGASTRESGVPDRFSGSGSGTDFTLTISSLQAEDVAVYYCQQYYLIPSTFGQGTKVEIK
notes: also called W→F
B2: C17F319 Fab variant W100a to I (Fab, V domains shown)
VH: B1 VH with F105I
VL: B1 VL
notes: also called W→I
B3: C17F319 Fab variant W100a to Y (Fab, V domains shown)
VH: B1 VH with F105Y
VL: B1 VL
notes: also called W→Y
B4: C17F319 Fab variant W100a to R (Fab, V domains shown)
VH: B1 VH with F105R
VL: B1 VL
notes: also called W→R
B5: C17F319 Fab variant W100a to T (Fab, V domains shown)
VH: B1 VH with F105T
VL: B1 VL
notes: also called W→T

Changes are numbered by the printed parent chain.

In one assay the target is T1, human CCL17. In words: ranking Fab ELISA with bt-human and bt-cyno CCL17. A general note: An ELISA detects its analyte on a solid surface through an enzyme-linked reagent.
Take B1: the binding result is given as “binds”.
The same measure, in the same setting: as for B2, the entry is “binds”; as for B3, “binds”.

The target in another assay is T2, cyno CCL17. Description: ranking Fab ELISA with bt-human and bt-cyno CCL17.
Consider B1, for which the binding result was “binds”.
On to B4, for which the binding result is listed as “binds”.
As to B2, the binding result is on record as “binds”.
Turning to B5, the binding result is “binds”.
Turning to B3, the binding result is reported as “binds”.
